Experimental data as given in patent US20100028862A1 (REPLIDYNE, published 2010).

Experiments:
DnaA (Escherichia coli) = conditions: minimum DnaA concentration giving plateau in origin reconstitution assay; ATP, Mg; gel shift and filter binding mentioned without values
[1] = test system: DNA polymerase III core (alpha-epsilon-theta) (Yersinia pestis)
[2] = test system: DnaG primase (Yersinia pestis)
[3] = test system: PolC (Streptococcus pyogenes); conditions: reconstitution assay; template inferred
[4] = target: DNA polymerase III alpha-epsilon (DnaE/DnaQ) (Pseudomonas aeruginosa) (UniProt Q9HXZ1+G3XD54); conditions: E. coli DnaG-primed holoenzyme assay, 30 C
[5] = test system: DnaG primase (Pseudomonas aeruginosa); conditions: reconstituted P. aeruginosa holoenzyme assay, 22 C
[6] = target: T1, P. aeruginosa χ subunit (untagged) (Pseudomonas aeruginosa, UniProt O68823 2-142); experiment: co-expression and co-purification (ammonium sulfate, Q Sepharose)
T1 construct: holC, PA3832, 142 amino acids; also called HolC; chi
T1 sequence: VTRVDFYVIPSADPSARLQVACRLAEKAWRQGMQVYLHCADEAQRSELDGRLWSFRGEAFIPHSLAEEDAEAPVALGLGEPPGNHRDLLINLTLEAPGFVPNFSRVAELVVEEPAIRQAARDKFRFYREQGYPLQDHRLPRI

[7] = target: T2, N-terminally hexa-His-tagged P. aeruginosa χ (Pseudomonas aeruginosa, UniProt O68823 2-142); experiment: Ni-NTA magnetic bead pull-down with immobilized His-tagged χ, imidazole elution
T2 construct: also called immobilized tagged P. aeruginosa χ; N-terminally His-tagged HolC; not shown: N-terminal hexa-His tag encoded by vector pA1-NB-KpnI
T2 sequence: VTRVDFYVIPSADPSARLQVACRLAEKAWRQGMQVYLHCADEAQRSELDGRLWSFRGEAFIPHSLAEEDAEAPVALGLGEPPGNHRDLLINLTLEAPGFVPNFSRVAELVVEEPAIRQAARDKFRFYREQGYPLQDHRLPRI

Molecule “M13 ssDNA with 306-nt insert containing DnaA-box hairpin” has an activity (DnaA (Escherichia coli)) of 76 nM.

In the case of M13Gori ssDNA, the activity [1] is reported as 1.1e+07 U/mg, the activity [2] is reported as 5.8e+06 U/mg and the activity [3] is reported as 500000 U/mg. For the same molecule, the activity [4] was 4.1e+06 U/mg and the activity [5] was 594000 U/mg.

B1: PA4679N45 protein, P. aeruginosa DNA polymerase III holoenzyme ψ subunit (other)
chain: LIEEQRRRAFLGAMQITSWLPRQPLPFAAPSRPELLETPPREEPAVPVRARAAIDAPQARVPQAEAPASAPSVAPAAPVEGRGIPISLPKPGAPAAKKAEPVAPVEEAPAESPAVQAPPPRFALQLLQAGSCTLLVELPTGEPFASRDPGYLLLRDLLRAAGLPDSPRLIGEPVRWPLLARGNLDQGPQAALEFVQSFVAARMEESERSRCLWLVGLPAIRFAGEGDEGSLFRELQVDGLGATWAVPGLEALMEEPALKGELWRAMRRVRQRWSSEIQ
notes: also called HolD; psi
B1: binds [6]; binds [7].
